The values below come from PMC10686819.

Holding throughout (test): cryo-EM structure
The target of assay [1] is B41 HT2 soluble Env heterotrimer (two B41 SOSIP.664 protomers, one D7324-tagged B41-D368R SOSIP.664 protomer) (HIV-1 (clade B, B41)).
For assay [2], the target named is BG505 HT1 soluble Env heterotrimer (two BG505-D368R SOSIP.664 protomers, one D7324-tagged BG505 SOSIP.664 protomer) (HIV-1 (clade A, BG505)).
Assay [3] has as its target BG505 HT2 soluble Env heterotrimer (two BG505 SOSIP.664 protomers, one D7324-tagged BG505-D368R SOSIP.664 protomer) (HIV-1 (clade A, BG505)).
In assay [4] the target is BG505 HT1 soluble Env heterotrimer (two BG505-D368R SOSIP.664 protomers, one D7324-tagged BG505 SOSIP.664 protomer) (HIV-1 (clade A, BG505)). This is another data set of the same source.
Assay [5] addresses BG505 HT2 soluble Env heterotrimer (two BG505 SOSIP.664 protomers, one D7324-tagged BG505-D368R SOSIP.664 protomer) (HIV-1 (clade A, BG505)). This is another data set of the same source.

Several values for one entry are separate records, joined by “and”; a condition that tells them apart may be missing. Equal entries are not always repeated. Where two headings read alike, the source gives them in different places.

Substance “CD4 (as used in the cryo-EM complex with B41 HT2; version not stated) (from UniProt P01730 26-396) (receptor)” registered a stoichiometry N in assay [1] of 2.
Consider “CD4 D1-D4 (domains 1-4), soluble (receptor)”, for which the stoichiometry N in assay [2] is 1; in assay [3] it was 2 and 1; in assay [4] it was 3; in assay [5], 3.

Usually stoichiometry N stands for a count of units in the complex or per binding partner.
